# Measurements taken from patent US20180318355A1, “METHODS AND COMPOSITIONS FOR IMPROVED TISSUE REGENERATION BY SUPPRESION OF INTERFERIN-GAMMA AND TUMOR NECROSIS FACTOR-ALPHA” (Alfred E. Mann Institute for Biomedical Eng. at the …, priority 2011, published 2018).
# “Also recorded” adds a separate entry of the source. Where a SMILES comes first, the peptide text is derived from it. The star is where a group is joined. Cbz = O=C(OCc1ccccc1)*; CH2F = FC*
# B1: IL-6: Recombinant murine IL-6 purchased from PeproTech (protein, UniProt P08505 25-211, looked up)
# Interleukin-6: FPTSQVRRGDFTEDTTPNRPVYTTSQVGGLITHVLWEIVEMRKELCNGNSDCMNNDDALAENNLKLPEIQRNDGCYQTGYNQEICLLKISSGLLEYHSYLEYMKNNLKDNKKDKARVLQRDTETLIHIFNQEVKDLHKIVLPTPISNALLTDKLESQKEWLRTKTIQFILKSLEEFLKVTLRSTRQT
# B2: IFN-γ: Recombinant murine IFN-γ purchased from PeproTech (protein, UniProt P01580 23-155, looked up)
# Interferon gamma: HGTVIESLESLNNYFNSSGIDVEEKSLFLDIWRNWQKDGDMKILQSQIISFYLRLFEVLKDNQAISNNISVIESHLITTFFSNSKAKKDAFMSIAKFEVNNPQVQRQAFNELIRVVHQLLPESSLRKRKRSRC
# B3: IL-17A: Recombinant murine IL-17A purchased from PeproTech (protein, UniProt Q62386 26-158, looked up)
# Interleukin-17A: AAIIPQSSACPNTEAKDFLQNVKVNLKVFNSLGAKVSSRRPSDYLNRSTSPWTLHRNEDPDRYPSVIWEAQCRHQRCVNAEGKLDHHMNSVLIQQEILVLKREPESCPFTFRVEKMLVGVGCTCVASIVRQAA
# B4: IL-4: Recombinant murine IL-4 purchased from PeproTech (protein, UniProt P07750 21-140, looked up)
# Interleukin-4: HIHGCDKNHLREIIGILNEVTGEGTPCTEMDVPNVLTATKNTTESELVCRASKVLRIFYLKHGKTPCLKKNSSVLMELQRLFRAFRCLDSSISCTMNESKSTSLKDFLESLKSIMQMDYS
# Assays:
# Fas = Fas internalization (immunocytochemical staining); type: cell-based, mouse; settings: caspase inhibitor in IFN-γ/TNF-α-treated BMMSCs vs control group
# Protocol: (§1) SiRNAs for Fas, TNFR2, IKK, FLIP and XIAP were used to treat the BMMSCs according to the manufacture's instruction, and IFN-γ and TNF-α were added for 24 hrs. Inhibitors for internalization (Latrunculin A, 0.2 μM), pan caspase (Z-VAD (OMe)-FMK, 50 μM), caspase 8 ([…], 20 μM) and caspase 3 (Z-DEVD-FMK, 20 µM) were used to treat the BMMSCs at 4 hrs before IFN-γ and TNF-α were added. Cell apoptosis were analysis by immunofluorescence staining and FACS^Calibur (Annexin V-PE apoptosis detection kit I) and Western blot analysis for caspase 8, cleaved caspase 8, caspase 3 and cleaved caspase 3.
# Fas internalization. P1 BMMSCs were seeded to 2-well chamber slide. IFN-γ (50 ng/ml) was added to pre-treat BMMSCs for 24 hours, and then TNF-α (20 ng/ml) was added. At the 0.5, 1, 2, 4 hours after TNF-α was added, the cells were washed by PBS twice, and fixed with 4% PFA for 15 min. After treated by Triton-X 15 min, the cells were blocked with normal serum matched to secondary antibodies, incubated with 1 μg/ml anti-Fas (Santa Cruz) antibody at room temperature for 2 hours, treated with Rhodamin-conjugated secondary antibodies (1:200, Jackson ImmunoResearch). Then the cells were incubated with ([…] (1:40; Invitrogen) at room temperature for 20 min, and were mounted by vectashield mounting medium DAPI (Vector Laboratories).
# BMMSCs [1] = experiment: Cell apoptosis and cell survival assay in vitro (toluidine blue, Annexin V); settings: for BMMSC death / viability: single cytokine, 1-200 ng/ml, three days
# Protocol: Cell apoptosis and cell survival assay. 0.5×10^6 BMMSCs were seeded to 6-well culture plate and co-cultured with different doses of recombined IL-4, IL-6, IL-17A, TGF-β1, TNF-α and IFN-γ (0, 10, 20, 50, 100, 200 ng/ml) for 3 days. To measure the cell viability, the total cells were analyzed by using a cell counting kit-8 (Dojindo Molecular Technoloies, Gaithersburg, Md.) according to the manufacture's instruction. And the culture plates with cells were stained with 2% toluidine blue O and 2% paraformaldehyde (Sigma-Aldrich Corporate, St. Louis, Mo.).
# For cell apoptosis analysis, the BMMSCs were stained by Annexin V-PE apoptosis detection kit I (BD Bioscience) following manufacture's protocol, and analyzed by FACS^Calibur (BD Bioscience).
# IFN-γ and TNF-α synergism for apoptosis. For cell apoptosis staining, the 1×10^4 BMMSCs were seeded onto two chambers slide, IFN-γ (50 ng/ml) and TNF-α (20 ng/ml) were used to treat the BMMSCs for 24 hrs either separately or combined, Annexin V-PE apoptosis detection kit I (BD Bioscience) was used to stain the BMMSCs following manufacture's protocol, and analyzed on microscopy and FACS^Calibur (BD Bioscience). Cell viability was analyzed by using cell counting kit, and culture plates were stained with 2% toluidine blue O and 2% paraformaldehyde.
# IFN-γ and TNF-α synergism for apoptosis. 0.5×10^6 BMMSCs were seeded to 6-well culture plate and co-cultured with different doses of TNF-α (0, 5, 50, 100 ng/ml) with or without IFN-γ (50 ng/ml) for I day. Then, the BMMSCs were stained by Annexin V-PE apoptosis detection kit I (BD Bioscience) following manufacture's protocol, and analyzed by FACS^Calibur (BD Bioscience).
# BMMSCs [2] = experiment: siRNA and inhibitors: IFN-γ/TNF-α-induced BMMSC death; type: cell-based, mouse; settings: siRNA or inhibitor treatment before IFN-γ/TNF-α, toluidine blue staining
# Protocol: as §1
# [3] = system: Fas, caspase 8, caspase 3; experiment: Western blot of Fas, cleaved caspase 8 and cleaved caspase 3 in BMMSCs; type: cell-based, mouse; settings: for cleaved caspase 3 in IFN-γ/TNF-α-treated BMMSCs / cleaved caspase 8 in IFN-γ/TNF-α-treated BMMSCs: siRNA or inhibitor treatment before IFN-γ/TNF-α
# Protocol: (§2) Western blot analysis. Total protein was extracted using M-PER mammalian protein extraction reagent (Thermo, Rockford, Ill.). Nuclear protein was obtained using NE-PER nuclear and cytoplasmic extraction reagent (Thermo). Protein was applied and separated on 4-12% NuPAGE gel (Invitrogen) and transferred to Immobilon™-P membranes (Millipore). The membranes were blocked with 5% non-fat dry milk and 0.1% tween-20 for 1 hour, followed by incubation with the primary antibodies (1:20¬1000 dilution) at 4° C. overnight. Horseradish peroxidase-conjugated IgG (Santa Cruz Biosciences; 1:10,000) was used to treat the membranes for 1 hour, and enhanced with a SuperSignal® West Pico Chemiluminescent Substrate (Thermo). The bands were detected on BIOMAX MR films (Kodak, Rochester, N.Y.). Each membrane was also stripped using a stripping buffer (Thermo) and reprobed with anti-β-actin antibody to quantify the amount of loaded protein.
# as §1
# BMMSCs [4] = experiment: Osteogenic differentiation assay (alizarin red staining); type: cell-based, mouse; settings: for mineralized nodule formation / osteogenic differentiation of BMMSCs: alizarin red
# Protocol: (§3) Osteogenic differentiation assay. BMMSCs were cultured under osteogenic culture condition media containing 2 mM […] (Sigma-Aldrich), 100 μM L-ascorbic acid 2-phosphate and 10 nM dexamethasone (Sigma-Aldrich). Different doses of IFN-γ (50, 200 ng/ml) were added to the osteogenic culture condition media every 3 days. After the osteogenic induction, the cultures were stained with alizarin red. Expressions of Runx2, ALP, and OCN were assayed by Western blot analysis.
# [5] = system: BMMSC-mediated bone formation; experiment: BMMSC-mediated bone formation, subcutaneous BMMSC/HA/TCP implantation; type: in vivo; settings: 200 ng cytokine in hydrogel co-implanted with BMMSCs/HA/TCP, immunocompromised mice, 8 weeks post implantation
# Protocol: BMMSC-mediated bone formation. Approximately 4.0×10^6 BMMSCs were mixed with hydroxyapatite/tricalcium phosphate (HA/TCP) ceramic particles (40 mg, Zimmer Inc., Warsaw, Ind.) as a carrier and subcutaneously implanted into the dorsal surface of 8-10 weeks old immunocompromised mice or C57BL/6J mice. At eight weeks post-implantation, the implants were harvested, fixed in 4% paraformaldehyde and then decalcified with 5% EDTA (pH 7.4), followed by paraffin embedding. The 6 μm paraffin sections were stained with hematoxylin and eosin (H&E) and analyzed by an NIH Image J. Five fields were selected and newly formed mineralized tissue area in each field was calculated and shown as a percentage to total tissue area.
# Cytokines in BMMSC-mediated bone formation. Approximately 4.0×10^6 of littermate-derived or autologous BMMSCs were mixed with HA/TCP ceramic powders (40 mg, Zimmer Inc.), and hydrogel (Glycosan Biosysterms, Salt Lake City, Utah) with 200 ng IFN-γ, TNF-α, IL-4, IL-6 or IL-17A were covered on the surface of the implants as a slow released system. At eight weeks post-implantation, the implants were harvested and newly formed mineralized tissue areas were analyzed. […]
# BMMSC-mediated bone formation. Approximately 4.0×10^6 of littermate-derived or autologous BMMSCs were mixed with hydroxyapatite/tricalcium phosphate (HA/TCP) ceramic particles (40 mg, Zimmer Inc., Warsaw, Ind.) as a carrier and subcutaneously implanted into the dorsal surface of 8-10 weeks old immunocompromised mice or C57BL6 mice. When aspirin was used, BMMSCs were treated with 50 μg/ml aspirin for 2 days and mixed with HA/TCP particles to be subcutaneously implanted into immunocompromised mice. When IFN-γ and TNF-α were used in the subcutaneous implants, 200 ng IFN-γ, TNF-α or/and 100 μg aspirin mixed with 250 μl hydrogel as a slow released system and subcutaneously co-implanted to the dorsal surface of 8-10 weeks old immunocompromised mice.
# At eight weeks post-implantation, the implants were harvested, fixed in 4% paraformaldehyde and then decalcified with 5% EDTA (pH 7.4), followed by paraffin embedding. The 6 μm paraffin sections were stained with hematoxylin and eosin (H&E) and analyzed by an NIH Image J. Five fields were selected and newly formed mineralized tissue area in each field was calculated and shown as a percentage to total tissue area.
# [6] = system: Smad 6, Smad 7, Runx2, ALP, OCN; experiment: Western blot of Smad 6, Smad 7 and osteogenic genes in BMMSCs; type: cell-based, mouse
# Protocol: as §3, §2
# [7] = 200 ng/ml cytokine, osteogenic media, 14 days
# [8] = Fas^−/− BMMSCs from lpr mice and Fas knock down BMMSCs by siRNA
# [9] = wild type BMMSCs, IFN-γ 50 ng/ml, TNF-α 20 ng/ml, alone or co-stimulated
molecule,measurement,setting,value
"COC(=O)C[C@H](NC(=O)[C@H](C)NC(=O)[C@@H](NC(=O)OCc1ccccc1)C(C)C)C(=O)CF [pan caspase inhibitor, Z-VAD (OMe)-FMK] (Cbz-Val-Ala-Asp(OMe)-CH2F)",number of BMMSCs with Fas internalization,Fas,reduced number of Fas internalization
TGF-β1: recombined TGF-β1 cytokine co-cultured with BMMSCs,BMMSC death / viability,BMMSCs [1]; toluidine blue staining,no effect
"C/C1=C/C(=O)O[C@@H]2C[C@@H](CC[C@H](C)/C=C\C=C\CC1)O[C@@](O)([C@@H]1CSC(=O)N1)C2 [Lnt A, Latrunculin A]",IFN-γ/TNF-α-induced BMMSC death,BMMSCs [2],significantly reduced
same,IFN-γ/TNF-α-induced BMMSC death,BMMSCs [2]; listed as LntA,partially rescue
same,cleaved caspase 3 in IFN-γ/TNF-α-treated BMMSCs,[3],significantly reduced
same,cleaved caspase 8 in IFN-γ/TNF-α-treated BMMSCs,[3],significantly reduced
same,cleaved caspase 3 in IFN-γ/TNF-α-treated BMMSCs,[3]; listed as LntA,inhibition of cleaved caspase 3 and 8
same,cleaved caspase 8 in IFN-γ/TNF-α-treated BMMSCs,[3]; listed as LntA,inhibition of cleaved caspase 3 and 8
B1,mineralized nodule formation / osteogenic differentiation of BMMSCs,BMMSCs [4]; [7],no inhibition effect
same,BMMSC death / viability,BMMSCs [1]; toluidine blue staining,no effect
same,new bone formation in BMMSC implants,[5],a reduction in new bone formation; also recorded: slightly inhibited
B2,Smad 6 elevation and inhibition of osteogenic genes,[6]; 50 ng/ml IFN-γ,not observed
same,Smad 6 expression,[6]; 200 ng/ml IFN-γ,elevated; also recorded: up-regulated expression
same,"expression of osteogenic genes Runx2, ALP and OCN",[6]; 200 ng/ml IFN-γ,inhibited; also recorded: down-regulated expression
same,expression levels of Smad 6 and Runx2,[6]; [8],failed to block osteogenesis and alter expression levels of Smad 6 and Runx2; also recorded: failed to reduce ostoegenic differentiation and alter expression levels of Smad 6 and Runx2
same,expression level of Smad 7,[6]; IFN-γ-treated BMMSCs,not altered
same,mineralized nodule formation / osteogenic differentiation of BMMSCs,BMMSCs [4]; 50 ng/ml IFN-γ,no significant inhibitive effect; also recorded: no inhibitory effect
same,mineralized nodule formation / osteogenic differentiation of BMMSCs,BMMSCs [4]; [7],significantly inhibited mineralized nodule formation; also recorded: significant reduction in mineralized nodule formation; also recorded: inhibited osteogenic differentiation
same,osteogenesis of Fas-deficient BMMSCs,BMMSCs [4]; [8],failed to block osteogenesis; also recorded: failed to reduce ostoegenic differentiation
same,TNF-α-induced BMMSC apoptosis,"BMMSCs [1]; IFN-γ 50 ng/ml added to TNF-α 0, 5, 50, 100 ng/ml, flow cytometric analysis",significantly enhanced TNF-α-induced BMMSC apoptosis
same,TNF-α-induced BMMSC apoptosis,"BMMSCs [1]; IFN-γ 50 ng/ml added to TNF-α 50-200 ng/ml, toluidine blue staining",synergistically enhanced; also recorded: significantly enhanced BMMSC apoptosis
same,TNF-α-induced BMMSC apoptosis,"BMMSCs [1]; IFN-γ 50 ng/ml with TNF-α 20 ng/ml, 7AAD/Annexin staining",accelerated; also recorded: enhanced
same,BMMSC death,BMMSCs [1]; IFN-γ 1 to 50 ng/ml with TNF-α 50 ng/ml,dose dependent BMMSC death; also recorded: correlated with IFN-γ concentration
same,BMMSC death,BMMSCs [1]; IFN-γ 100-200 ng/ml with TNF-α 50 ng/ml,no any BMMSC survived; also recorded: complete BMMSC apoptosis
same,BMMSC death / viability,BMMSCs [1]; toluidine blue staining,no effect; also recorded: not able to induce BMMSC apoptosis
same,Fas expression,[3]; [9],up-regulated expression of Fas; also recorded: activated
same,activation of caspase 3 and caspase 8,[3]; [9],no activation of caspase 3 and caspase 8; also recorded: without activating caspase 3 and caspase 8
same,new bone formation in BMMSC implants,[5],completely blockage of new bone formation; also recorded: inhibited subcutaneous bone formation; also recorded: reduced BMMSC-mediated bone formation; also recorded: significantly reduced bone formation
B3,mineralized nodule formation / osteogenic differentiation of BMMSCs,BMMSCs [4]; [7],no inhibition effect
same,BMMSC death / viability,BMMSCs [1]; toluidine blue staining,no effect
same,new bone formation in BMMSC implants,[5],no inhibitory effect
same,new bone formation in BMMSC implants,[5]; listed as IL-17,no inhibitive effect
B4,mineralized nodule formation / osteogenic differentiation of BMMSCs,BMMSCs [4]; [7],reduced mineralized nodule formation; also recorded: partial inhibition
same,BMMSC death / viability,BMMSCs [1]; toluidine blue staining,no effect
same,new bone formation in BMMSC implants,[5],a reduction in new bone formation; also recorded: slightly inhibited
